Source: patent US20260070976A1 (Alector, published 2026)

Legend:
[1] = target: T1, cell surface PILRA on human monocytes (human, UniProt Q9UKJ1 20-303); assay: cell-based or functional assay
recombinant human PILRB [2] = target: T2, recombinant human PILRB (human, UniProt Q9UKJ0 20-191); assay: SPR, Carterra LSA, steady-state fit
Procedure: (§1) Binding kinetics of human anti-PILRA-IgG4 antibodies were evaluated by surface plasmon resonance (SPR) using a Carterra LSA instrument (Carterra, Salt Lake City, UT). Antibodies were immobilized in duplicate arrays onto an HC30M sensor chip (Carterra) by amine coupling according to the manufacturer's protocol. After priming the immobilized antibodies with HBS-EP+ (Teknova, Hollister, CA, #8022) running buffer with 0.5 mg/mL BSA (MP Biomedicals LLC, #820451), the immobilized antibodies were tested for their ability to bind to recombinant human PILRA (SEQ ID NO:1) and cynomolgus PILRA (SEQ ID NO:120) and to human PILRB (SEQ ID NO:105) and cynomolgus PILRB (SEQ ID NO:121).
(§2) For binding kinetics analysis, human and cynomolgus PILRA and PILRB analytes were diluted in running buffer to 440 to 470 nM, and diluted 3-fold serially five times, to 1.8 to 1.9 nM, and injected for five minutes over the entire chip using the single channel flow cell to measure association of binding to the immobilized antibodies. Dissociation of the analytes was measured for five minutes, followed by regeneration of the chip with two 30-second injections of 10 mM glycine pH 2.0.
For the human PILRB interactions, the binding was too weak and heterogenous for kinetic constants to be calculated in this assay. Therefore, steady-state affinities were estimated based on the binding level of each analyte concentration at the end of the injections.

recombinant human PILRA [3] = target: T3, recombinant human PILRA (human, UniProt Q9UKJ1 20-197); assay: SPR, Biacore T200, antibody captured by anti-Fab
Procedure: (§3) A subset of these antibodies was further evaluated using the Biacore T200 (Cytiva). Anti-PILRA antibodies were diluted to 10 μg/mL and captured using an anti-Fab (Cytiva, #28958325) surface on a CM4 chip, that was prepared by amine coupling according to the manufacturer's protocol. Human PILRA and cynomolgus PILRB were diluted in running buffer to 130 nM, and diluted 4-fold serially, twice, to 8 nM. Human PILRB was similarly diluted from 260 nM to 16 nM. These analytes were injected and allowed 2 minutes of association, followed by dissociation for 5 minutes.
(§4) Data were analyzed using Biacore evaluation software to generate kinetic constants. The equilibrium dissociation constants (KD) were calculated from the fitted association and dissociation rate constants (k-on and k-off) for each of the anti-PILRA antibodies. These Kn values are indicated with asterisks in Table 8 below.

recombinant human PILRA [4] = target: T3, recombinant human PILRA; assay: SPR, Carterra LSA, antibody amine-coupled, kinetic fit
Procedure: as §1, §2

[5] = target: T4, recombinant cynomolgus PILRA (SEQ ID NO:120) (cynomolgus monkey); assay: as above
T4 construct: also called cyno PILRA
Procedure: as §1, §2

[6] = target: T5, human PILRA G78 on HEK293F cells (human, UniProt Q9UKJ1 20-303); assay: FACS on HEK293F cells, binding on human PILRA (hA) over human PILRB (hB)
T5 construct: also called hA; G78 OE
Procedure: (§5) Conditioned media samples containing the tested anti-PILRA antibodies were assessed for binding to HEK293F cells overexpressing human PILRA (hA), human PILRB (hB), and cynomolgus PILRA (cA) by FACS. The conditioned media containing the tested antibodies were incubated with the cells for 30 min at 4° C., washed twice, and then detected with goat anti-human IgG secondary antibody (Alexa Fluor 647) at 1:1000 dilution. The cells were analyzed by flow cytometry on FACS Canto II, and for all cell lines, the reported MFI values were calculated for each conditioned media. These antibodies were evaluated for nonspecific binding using a baculovirus particle (BVP) assay (Jain T., Sun T., Durand S., Hall A., Houston N. R., Nett J. H., Sharkey B., Bobrowicz B., Caffry L, Yu Y., et al. Biophysical properties of the clinical-stage antibody landscape. Proc. Natl. Acad. Sci. USA. 2017; 114:944-949. Doi: 10.1073/pnas.1616408114.). The BVP scores are listed in Table 9, and the higher the score the more nonspecific binding that occurred.

[7] = target: cynomolgus PILRA on HEK293F cells (cynomolgus monkey, UniProt A0A7N9CRU1 20-292); assay: cA Kd of Table 9; method not stated (Example 8: HEK293F overexpressing cells, FACS)
[8] = target: T5, human PILRA G78 on HEK293F cells; assay: hA Kd of Table 9; method not stated (Example 8: HEK293F overexpressing cells, FACS)
[9] = target: T5, human PILRA G78 on HEK293F cells; assay: flow cytometry; HEK293F cells overexpressing human PILRA, goat anti-human IgG Alexa Fluor 647
Procedure: as §5

recombinant human PILRB [10] = target: T2, recombinant human PILRB; assay: SPR, Biacore T200, antibody captured by anti-Fab
Procedure: as §3, §4

[11] = target: T6, human PILRB on HEK293F cells (human, UniProt Q9UKJ0 20-227); assay: hB Kd of Table 9; method not stated (Example 8: HEK293F overexpressing cells, FACS)
T6 construct: also called hB

[12] = target: T1, cell surface PILRA on human monocytes; assay: flow cytometry; Alexa Fluor 647-conjugated antibody on human CD14+ monocytes, Fc receptors blocked, 30 min on ice
Procedure: Anti-human PILRA antibodies X0 (PA-29) and its affinity matured variants were tested for their abilities to bind cell surface PILRA on human and cynomolgus monocytes. CD14+ monocytes were isolated from healthy human donors using a RosetteSep Human Monocyte Enrichment Cocktail kit (StemCell). Cynomolgus white blood cells were collected from cynomolgus whole blood. In both human and cynomolgus samples, the Fc receptor on the tested monocytes was blocked and the monocytes were treated with Alexa Fluor 647-conjugated PILRA antibodies for 30 minutes on ice. A dose response curve of antibodies X0 (PA-29), X1, X2, X7, X11, X12, X13, X14, X16, X18, and X20 was tested for binding to cell surface PILRA in human and cynomolgus monocytes, and antibodies bound to PILRA in a dose response manner. In another sample of human donor monocytes, a dose response curve of antibodies X0 (PA-29), X1, X2, X11, X13, X18, X29 (PA-43), and X34 (A6) was tested for binding to cell surface PILRA in human and cynomolgus monocytes, and antibodies bound to PILRA in a dose response manner.

[13] = target: T5, human PILRA G78 on HEK293F cells; assay: flow cytometry blocking assay; antibody on HEK293F cells overexpressing human PILRA G78, then 5 ug/mL NPDC1 Fc as the blocked ligand; cell-bound NPDC1 Fc read as MFI
Procedure: A dose response curve of antibodies X0 (PA-29), X1, X2, X7, X11, X12, X13, X14, X16, X18, and X20 was assessed for modulating the binding of Neural Proliferation Differentiation and Control Protein 1 (NPDC1) Fc to 293 cells ectopically expressing human PILRA (HEK293F human PILRA G78 overexpressing cells). Conditioned media samples containing antibodies were incubated with human PILRA overexpressing cells for 30 minutes at 4° C., and then 5 μg/mL NPDC1 Fc was added to this mixture. After 30 minutes of incubation at 4° C., the cells were washed and cell-bound NPDC1 Fc was detected with anti-human IgG Alexa Fluor 647. The cells were analyzed by flow cytometry on FACS Canto II with the percentage of NPDC1 Fc binding in the presence of conditioned media relative to NPDC1 Fc binding alone was calculated. […] All tested antibodies decreased binding of NPDC1 to human PILRA.

T5 sequence (Q9UKJ1 20-303 R78G): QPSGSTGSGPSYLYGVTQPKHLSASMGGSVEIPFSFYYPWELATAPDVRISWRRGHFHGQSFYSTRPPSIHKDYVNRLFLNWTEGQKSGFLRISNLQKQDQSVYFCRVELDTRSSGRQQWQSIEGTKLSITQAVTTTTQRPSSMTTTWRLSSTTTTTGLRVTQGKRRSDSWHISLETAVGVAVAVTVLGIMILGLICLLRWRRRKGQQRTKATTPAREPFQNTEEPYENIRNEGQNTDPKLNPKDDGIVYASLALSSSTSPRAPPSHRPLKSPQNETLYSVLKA
cynomolgus PILRA on HEK293F cells, sequence (A0A7N9CRU1 entry or part of it): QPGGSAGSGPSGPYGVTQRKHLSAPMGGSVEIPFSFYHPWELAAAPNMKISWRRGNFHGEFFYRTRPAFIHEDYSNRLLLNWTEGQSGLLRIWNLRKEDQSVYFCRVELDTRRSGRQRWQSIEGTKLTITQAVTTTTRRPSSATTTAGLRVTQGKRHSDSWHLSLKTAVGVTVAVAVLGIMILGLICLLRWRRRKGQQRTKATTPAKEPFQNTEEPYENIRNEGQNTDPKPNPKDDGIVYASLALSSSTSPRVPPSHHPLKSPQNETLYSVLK
T2 sequence (Q9UKJ0 20-191 limits assumed): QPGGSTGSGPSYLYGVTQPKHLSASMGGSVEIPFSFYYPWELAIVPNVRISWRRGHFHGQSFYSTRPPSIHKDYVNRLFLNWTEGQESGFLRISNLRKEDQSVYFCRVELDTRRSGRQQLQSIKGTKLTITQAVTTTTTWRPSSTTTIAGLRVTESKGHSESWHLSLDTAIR
T4 sequence (chain, as listed by the source limits assumed): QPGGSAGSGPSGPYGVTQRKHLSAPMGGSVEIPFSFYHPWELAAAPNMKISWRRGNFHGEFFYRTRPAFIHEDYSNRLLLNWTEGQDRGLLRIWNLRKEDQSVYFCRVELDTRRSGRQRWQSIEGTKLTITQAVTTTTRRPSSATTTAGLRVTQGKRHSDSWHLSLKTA
T3 sequence (Q9UKJ1 20-197 limits assumed): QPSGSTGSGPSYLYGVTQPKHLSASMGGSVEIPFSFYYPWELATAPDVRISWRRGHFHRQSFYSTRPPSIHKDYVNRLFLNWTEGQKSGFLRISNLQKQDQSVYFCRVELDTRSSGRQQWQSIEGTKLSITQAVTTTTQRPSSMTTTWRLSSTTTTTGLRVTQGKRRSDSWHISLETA
T1 sequence (Q9UKJ1 20-303): as the sequence (Q9UKJ1 20-303 R78G) above, with G59R counted along it
T6 sequence (Q9UKJ0 20-227): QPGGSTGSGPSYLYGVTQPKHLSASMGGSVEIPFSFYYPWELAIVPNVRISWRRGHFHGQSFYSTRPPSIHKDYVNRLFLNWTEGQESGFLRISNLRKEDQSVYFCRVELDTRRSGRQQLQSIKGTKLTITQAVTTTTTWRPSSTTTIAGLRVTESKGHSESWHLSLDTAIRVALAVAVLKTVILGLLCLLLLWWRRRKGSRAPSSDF

Binder	Hu Mono DR EC50 [1] [µg/mL]	binding result (recombinant human PILRB [2])	Kd (recombinant human PILRA [3]) [nM]	Kd (recombinant human PILRA [4]) [nM]	Kd [5] [nM]	hA/hB binding ratio on HEK293F [6]	Kd [7] [nM]	Kd [8] [nM]	EC50 (read off the curve) [9] [µg/mL]	Kd (recombinant human PILRB [2]) [nM]	Kd (recombinant human PILRB [10]) [nM]	Kd [11] [nM]	EC50 (read off the curve) [12] [µg/mL]	IC50 (read off the curve) [13] [µg/mL]
X0 (PA-29) (antibody, V domains shown, conditioned media in the HEK293F assays; also called parental X0 (PA-29) antibody; XO (PA-29)) VH: QVQLVQSGAEVKKPGSSVKVSCKASGYNFLNYDVNWVRQAPGQGLEWMGGIIPIFGTANYAQKFQGRVTITADESTSTAYMELSSLRSEDTAVYYCATGVGAGWFDPWGQGTLVTVSS VL: not shown	0.7	no binding	294	233	17	108	192	78.7	~0.3					
X16 (antibody, human IgG4, V domains shown, conditioned media in the HEK293F assays) VH: QVQLVQSGAEVKKPGSSVKVSCKASGYNFLHYDVNWVRQAPGQGLEWMGGIIPIFGTANYAQKFQGRVTITADESTSTAYMELSSLRSEDTAVYYCATAVGAGWFDTWGQGTLVTVSS VL: DIVMTQSPDSLAVSLGERATINCKSSQSVYFDVNNKNYLAWYQQKPGQPPKLLIYWASTRESGVPDRFSGSGSGTDFTLTISSLQAEDVAVYYCQQYFEEPYTFGQGTRLEIK	0.005			0.5	0.1	6.1				2				
X12 (antibody, human IgG4, V domains shown, conditioned media in the HEK293F assays) VH: QVQLVQSGAEVKKPGSSVKVSCKASGYNFLHYDVNWVRQAPGQGLEWMGGIIPIFGTANYAQKFQGRVTITADESTSTAYMELSSLRSEDTAVYYCATAVGAGWFDTWGQGTLVTVSS VL: not shown	~0.02		0.3	1	0.2	14.4	0.3	0.1		12	28	36.7	~0.1	~0.08
X20 (antibody, human IgG4, V domains shown, conditioned media in the HEK293F assays) VH: QVQLVQSGAEVKKPGSSVKVSCKASGYNFLHYDVNWVRQAPGQGLEWMGGIIPIFGTANYAQKFQGRVTITADESTSTAYMELSSLRSEDTAVYYCATAVGAGWFDPWGQGTLVTVSS VL: DIVMTQSPDSLAVSLGERATINCKSSQSVYFSENNKNYLAWYQQKPGQPPKLLIYWASTRESGVPDRFSGSGSGTDFTLTISSLQAEDVAVYYCQQYYEEPYTFGQGTRLEIK	~0.02			0.5	0.1	6.7				2				
X14 (antibody, human IgG4, V domains shown, conditioned media in the HEK293F assays) VH: QVQLVQSGAEVKKPGSSVKVSCKASGYNFLHYDVNWVRQAPGQGLEWMGGIIPIFGTANYAQKFQGRVTITADESTSTAYMELSSLRSEDTAVYYCATAVGAGWFDTWGQGTLVTVSS VL: DIVMTQSPDSLAVSLGERATINCKSSQSVYFSPNNKNYLAWYQQKPGQPPKLLIYWASTRESGVPDRFSGSGSGTDFTLTISSLQAEDVAVYYCQQYFEEPYTFGQGTRLEIK	~0.02			1.1	0.1	7.9	0.3	0.1		4		6.6	~0.1	~0.02

Further binders by falling Kd (recombinant human PILRA [4]), results first:

Hu Mono DR EC50 [1] [µg/mL]	binding result (recombinant human PILRB [2])	Kd (recombinant human PILRA [3]) [nM]	Kd (recombinant human PILRA [4]) [nM]	Kd [5] [nM]	hA/hB binding ratio on HEK293F [6]	Kd [7] [nM]	Kd [8] [nM]	EC50 (read off the curve) [9] [µg/mL]	Kd (recombinant human PILRB [2]) [nM]	Kd (recombinant human PILRB [10]) [nM]	Kd [11] [nM]	EC50 (read off the curve) [12] [µg/mL]	IC50 (read off the curve) [13] [µg/mL]	Binder
0.9			3.8	0.4	63	2	1.2		77			~0.2	~0.08	X7 (antibody, human IgG4, V domains shown, conditioned media in the HEK293F assays) VH: QVQLVQSGAEVKKPGSSVKVSCKASGYNFLNYDVNWVRQAPGQGLEWMGGIIPIFGTANYAQKFQGRVTITADESTSTAYMELSSLRSEDTAVYYCATGVGAGWFDPWGQGTLVTVSS VL: DIVMTQSPDSLAVSLGERATINCKSSQSVFFDENNKNYLAWYQQKPGQPPKLLIYWASTRESGVPDRFSGSGSGTDFTLTISSLQAEDVAVYYCQQYFEEPYTFGQGTRLEIK
		6.2	2.2	0.2					54	14				X22 (antibody, human IgG4, V domains shown) VH: QVQLVQSGAEVKKPGSSVKVSCKASGYNFLHYDVNWVRQAPGQGLEWMGGIIPIFGTANYAQKFQGRVTITADESTSTAYMELSSLRSEDTAVYYCATGVGAGWFDPWGQGTLVTVSS VL: not shown
		1.9	1.8	0.1					43					X21 (antibody, human IgG4, V domains shown) VH: QVQLVQSGAEVKKPGSSVKVSCKASGYNFLHYDVNWVRQAPGQGLEWMGGIIPIFGTANYAQKFQGRVTITADESTSTAYMELSSLRSEDTAVYYCATGVGAGWFDPWGQGTLVTVSS VL: not shown
